According to article PMC5384220, “Highly selective inhibition of histone demethylases by de novo macrocyclic peptides” (Nature Communications, 2017):

Key:
Assay in all cases: cell-based or functional assay
factor inhibiting HIF = factor inhibiting HIF (UniProt Q9NWT6 1-349)
KDM1A = KDM1A (human, UniProt O60341 1-852)
KDM2A = biological target: T1, KDM2A (human, UniProt Q9Y2K7 1-1162)
T1 sequence (looked up): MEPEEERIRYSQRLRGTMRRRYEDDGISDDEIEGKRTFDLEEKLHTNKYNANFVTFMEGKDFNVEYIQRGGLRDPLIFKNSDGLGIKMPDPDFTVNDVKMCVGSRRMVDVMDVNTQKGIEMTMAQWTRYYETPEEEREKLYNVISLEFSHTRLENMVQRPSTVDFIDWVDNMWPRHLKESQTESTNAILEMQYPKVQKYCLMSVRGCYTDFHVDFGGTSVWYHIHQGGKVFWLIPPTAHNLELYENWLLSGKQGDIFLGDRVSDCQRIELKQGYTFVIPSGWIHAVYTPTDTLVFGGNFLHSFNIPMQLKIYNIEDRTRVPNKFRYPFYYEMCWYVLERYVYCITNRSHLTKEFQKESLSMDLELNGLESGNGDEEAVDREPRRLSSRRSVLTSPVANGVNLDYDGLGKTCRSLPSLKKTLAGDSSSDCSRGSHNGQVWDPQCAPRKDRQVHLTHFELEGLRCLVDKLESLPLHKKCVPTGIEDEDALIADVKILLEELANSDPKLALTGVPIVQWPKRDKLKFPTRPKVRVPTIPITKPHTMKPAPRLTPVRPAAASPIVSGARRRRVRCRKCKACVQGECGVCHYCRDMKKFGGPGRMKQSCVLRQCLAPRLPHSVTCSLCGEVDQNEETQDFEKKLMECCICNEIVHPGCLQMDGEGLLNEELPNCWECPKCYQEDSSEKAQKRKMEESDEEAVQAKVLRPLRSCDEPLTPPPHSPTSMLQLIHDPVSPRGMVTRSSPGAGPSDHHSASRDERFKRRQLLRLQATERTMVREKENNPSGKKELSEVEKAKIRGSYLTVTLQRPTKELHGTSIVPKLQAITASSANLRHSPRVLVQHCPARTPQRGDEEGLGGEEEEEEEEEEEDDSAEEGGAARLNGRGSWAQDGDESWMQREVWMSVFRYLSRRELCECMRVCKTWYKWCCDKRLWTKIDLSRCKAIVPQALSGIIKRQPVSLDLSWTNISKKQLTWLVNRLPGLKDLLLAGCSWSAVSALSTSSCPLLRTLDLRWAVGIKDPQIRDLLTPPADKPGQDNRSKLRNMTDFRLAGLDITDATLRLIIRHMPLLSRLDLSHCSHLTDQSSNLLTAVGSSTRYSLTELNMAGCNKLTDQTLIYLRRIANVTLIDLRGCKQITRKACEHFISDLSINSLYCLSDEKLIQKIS

Chain of factor inhibiting HIF (Q9NWT6 whole entry): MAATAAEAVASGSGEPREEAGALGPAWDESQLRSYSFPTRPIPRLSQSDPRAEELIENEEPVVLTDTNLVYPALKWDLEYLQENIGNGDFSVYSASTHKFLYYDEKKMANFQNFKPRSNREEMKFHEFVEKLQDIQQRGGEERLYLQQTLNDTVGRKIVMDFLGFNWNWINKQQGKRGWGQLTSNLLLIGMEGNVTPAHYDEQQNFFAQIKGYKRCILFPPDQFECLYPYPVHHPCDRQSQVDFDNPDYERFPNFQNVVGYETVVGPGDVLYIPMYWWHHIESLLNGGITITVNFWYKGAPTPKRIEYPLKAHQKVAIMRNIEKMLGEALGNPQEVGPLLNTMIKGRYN

B1: CP4 (peptide)
chain: YLKSRRSGLTWIPC
modifications: not fully specified; N-terminal L-Tyr (^LTyr library, N-chloroacetyl-L-Tyr) cyclised by a thioether to a downstream cysteine
In the case of B1, the “IC50 of inhibition of FIH (MALDI–TOF MS assay)” value (factor inhibiting HIF) is reported as greater than 1 mM, the “IC50 of inhibition of KDM1A/LSD1 (fluorescence-based assay)” value (KDM1A) is reported as greater than 10 µM and the “IC50 of inhibition of demethylase activity (AlphaScreen activity assay)” value (KDM2A) is reported as greater than 10 µM.
